Experimental findings from PMC3337327, “Crystal structures from the Plasmodium peroxiredoxins: new insights into oligomerization and product binding” (BMC Structural Biology, 2012) are described below.

In data set [1] the target is Plasmodium knowlesi thioredoxin peroxiredoxin 1 (PkTrx-Px1), full-length His6-tagged construct (P. knowlesi H). The experiment in a line: LC-MS-TOF mass spectrometry; purified enzyme as isolated, without reducing agent; Agilent LC-MS-TOF, positive ion mode, desalted on a Poroshell 300-SB-C3 column; shows the covalent (disulfide-linked) dimer.
Data set [2] has as its target Plasmodium yoelii thioredoxin peroxiredoxin 1 (PyTrx-Px1), full-length His6-tagged construct (P. yoelii 17XNL). The data set is described as above.
The target of data set [3] is Plasmodium vivax thioredoxin peroxiredoxin 1 (PvTrx-Px1), full-length His6-tagged construct (P. vivax Salvador I). The experiment in a line: crystal structure; PvTrx-Px1_red, His6-tag intact, protein treated with 5 mM TCEP; 19% PEG 3350, 150 mM lithium citrate, 18 C; 2.45 A.
For data set [4] the target is unchanged. In words: crystal structure; PvTrx-Px1_ox, His6-tag intact, 8 mg/mL in 10 mM HEPES pH 7.5, 500 mM NaCl; 5% PEG 4K, NaAc pH 4.6, 18 C; 2.5 A.
Data set [5] shares this target. In words: LC-MS-TOF mass spectrometry; purified enzyme as isolated, without reducing agent; Agilent LC-MS-TOF, positive ion mode, desalted on a Poroshell 300-SB-C3 column; shows the covalent (disulfide-linked) dimer.
For data set [6], the target named is Plasmodium yoelii 1-Cys peroxiredoxin of the Prx6 subfamily (PyPrx6), full-length His6-tagged construct (P. yoelii 17XNL). The experiment in a line: SEC; calibrated Superdex S200 gel filtration column, 10 mM HEPES pH 7.4, 500 mM NaCl; PyPrx6 eluted at 220 mL.
Data set [7] has the same target. The experiment in a line: crystal structure; PyPrx6-SO2H with glycerol bound, His6-tag intact, 15 mg/mL; 23% PEG 3350, 0.1 M Bis-Tris pH 5.5, 200 mM (NH4)2SO4, 5% ethylene glycol, 20 C; 2.3 A.
The target of data set [8] is Plasmodium yoelii thioredoxin peroxiredoxin 1 with a 6-residue N-terminal truncation (PyTrx-Px1: Q7-L195) (P. yoelii 17XNL). In words: crystal structure; PyTrx-Px1_ox, His6-tag intact, 4.3 mg/mL; 1.6 M ammonium sulfate, 100 mM HEPES pH 6.8, 200 mM NaAc, 20 mM NaBr, 5% ethylene glycol, 18 C; 2.3 A.
The target is the same in data set [9]. In words: LC-MS-TOF mass spectrometry; purified enzyme as isolated, without reducing agent; Agilent LC-MS-TOF, positive ion mode, desalted on a Poroshell 300-SB-C3 column; shows the covalent (disulfide-linked) dimer.
Data set [10] deals with the molecule itself. The description is as above.

As for “Plasmodium knowlesi thioredoxin peroxiredoxin 1 (PkTrx-Px1), full-length His6-tagged construct (enzyme)”, the stoichiometry N in data set [1] was determined as 2.
As for “Plasmodium yoelii thioredoxin peroxiredoxin 1 (PyTrx-Px1), full-length His6-tagged construct (enzyme)”, the stoichiometry N in data set [2] worked out at 2.
In the case of “Plasmodium vivax thioredoxin peroxiredoxin 1 (PvTrx-Px1), full-length His6-tagged construct (enzyme)”, the stoichiometry N came out at 10 in [3], 10 in [4] and 2 in data set [5].
Regarding “Plasmodium yoelii 1-Cys peroxiredoxin of the Prx6 subfamily (PyPrx6), full-length His6-tagged construct (enzyme)”, the stoichiometry N in data set [6] and in data set [7] was 2 each time.
With “Plasmodium yoelii thioredoxin peroxiredoxin 1 with a 6-residue N-terminal truncation (PyTrx-Px1: Q7-L195) (domain or fragment)”, the stoichiometry N was 8 in data set [8] and 2 in data set [9].

B1: Plasmodium falciparum thioredoxin peroxiredoxin 1 (PfTrx-Px1), full-length His6-tagged construct (enzyme, P. falciparum 3D7, UniProt Q8IL80 1-195, looked up)
chain: MASYVGREAPYFKAEAVFADNTFGEVNLHDFIGKKYVLLYFYPLDFTFVCPSEIIALDKALDAFKERNVELIGCSVDSKYTHLAWKKTPLTKGGIGNIQHTLISDITKSISRSYNVLFGDSVSLRAFVLIDKQGVVQHLLVNNLAIGRSVEEVLRIIDAVQHHEQHGDVCPANWKKGKVAMKPSEEGVSEYLSKL
modifications: intermolecular disulfide between the peroxidatic and resolving cysteines (C50, C170) in the enzyme as purified
notes: thioredoxin peroxiredoxin 1 (Trx-Px1, 2-Cys Prx, Prx1 subfamily), P. falciparum 3D7, PlasmoDB PF14_0368, full length; N-terminal Met of the tag is clipped in E. coli; also called Trx-Px1 from P. falciparum
As for B1, in data set [10], the “stoichiometry N” value was 2.
